Assay results published in patent US20210301000A1.

Columns and labels:
[1] = target: (DN-(I+II+III+IV)-NS) antigen (self-produced, expressed in insects) (dengue virus); assay: capture ELISA, antibody at 1000 ng/ml
[2] = target: (DN-(I+II+III+IV)-NS) antigen (self-produced, expressed in insects) (dengue virus); assay: capture ELISA, antibody at 333.333 ng/ml
[3] = target: (DN-(I+II+III+IV)-NS) antigen (self-produced, expressed in insects) (dengue virus); assay: capture ELISA, antibody at 111.111 ng/ml
[4] = target: DN quality control product recombinant protein (a recombinant antigen produced by the company itself) (dengue virus); assay: AMO sensor, antibody on sensor, antigen in solution
[5] = target: (DN-(I+II+III+IV)-NS) antigen (self-produced, expressed in insects) (dengue virus); assay: capture ELISA, antibody at 4.115 ng/ml
[6] = target: (DN-(I+II+III+IV)-NS) antigen (self-produced, expressed in insects) (dengue virus); assay: capture ELISA, antibody at 12.346 ng/ml
[7] = target: (DN-(I+II+III+IV)-NS) antigen (self-produced, expressed in insects) (dengue virus); assay: capture ELISA, antibody at 0 ng/ml (blank)
[8] = target: (DN-(I+II+III+IV)-NS) antigen (self-produced, expressed in insects) (dengue virus); assay: capture ELISA, antibody at 37.037 ng/ml
[9] = target: (DN-(I+II+III+IV)-NS) antigen (self-produced, expressed in insects) (dengue virus); assay: capture ELISA, antibody at 1.372 ng/ml

| Binder | Kd [4] | koff [4] | kon [4] | other results |
| --- | --- | --- | --- | --- |
| Mutation 3 (antibody, V domains shown) VH: QVQLQQSGAELVRPGTSVKISCKASGYTFTDYWIGWVKQRPGHGLEWIGDMWPGDLYINYQEKFKGKATLTADTSSNTAYMQLSSLTSEDSAVYFCTNFITVGGLDYWGRGTSLTVSS VL: DVVMTQTPLTLSVTIGQPASISCKSSQSLLSSDGRTYLNWLLQRPGQSPKRLIYLVTKVDSGVPDRFTGSGSVTDFTLKISRVESEDLGVYYCWQGTHFFHTFGAGTKLEVKR | – | – | – | OD450 (ref 630) [1]: 0.847 OD; OD450 (ref 630) [2]: 0.347 OD; OD450 (ref 630) [3]: 0.056 OD |
| WT 1-20 (antibody, V domains shown) VH: QVQLQQSGAELVRPGTSVKISCKASGYSFTDYWIGWVKQRPGHGLEWIGDMVPGDIYINYQEKFKGKATLTADTSSNTAYMQLSSLTSEDSAVYFCTNFITVGGLDYWGRGTSLTVSS VL: DVVMTQTPLTLSVTIGQPASISCKSSQSLLESDGRTYLNWLLQRPGQSPKRLIYLVTKLDSGVPDRFTGSGSVTDFTLKISRVESEDLGVYYCWWGTHFAHTFGAGTKLEVKR | 45.9 nM | 0.000143 s⁻¹ | 3120 M⁻¹ s⁻¹ | – |
| WT 1-1 (antibody, V domains shown) VH: QVQLQQSGAELVRPGTSVKISCKASGYSFTEYWIGWVKQRPGHGLEWIGDMVPGDLYINYNEKFKGKATLTADTSSNTAYMQLSSLTSEDSAVYFCTNFITVGGVDYWGRGTSLTVSS VL: DVVMTQTPLTLSVTIGQPASISCKSSQSLLESDGKTYLNWLLQRPGQSPKRLIYLVTKIDSGVPDRFTGSGSVTDFTLKISRVESEDLGVYYCWYGTHFAHTFGAGTKLEVKR | 12.8 nM | 5.86e-05 s⁻¹ | 4570 M⁻¹ s⁻¹ | – |
| WT 1-4 (antibody, V domains shown) VH: QVQLQQSGAELVRPGTSVKISCKASGYSFTDYWIGWVKQRPGHGLEWIGDMVPGDIYINYQEKFKGKATLTADTSSNTAYMQLSSLTSEDSAVYFCTNFLTVGGVDYWGRGTSLTVSS VL: DVVMTQTPLTLSVTIGQPASISCKSSQSLLESDGRTYLNWLLQRPGQSPKRLIYLVTKIDSGVPDRFTGSGSVTDFTLKISRVESEDLGVYYCWYGTHFAHTFGAGTKLEVKR | 28 nM | 0.000142 s⁻¹ | 5080 M⁻¹ s⁻¹ | – |
| Mutation 1-28 (antibody, V domains shown) VH: QVQLQQSGAELVRPGTSVKISCKASGYTFTDYWIGWVKQRPGHGLEWIGDMFPGDIYINYNEKFKGKATLTADTSSNTAYMQLSSLTSEDSAVYFCTNFITLGGIDYWGRGTSLTVSS VL: DVVMTQTPLTLSVTIGQPASISCKSSNSLLDSDGRTYLNWLLQRPGQSPKRLIYLVSKIDSGVPDRFTGSGSVTDFTLKISRVESEDLGVYYCWYGTHFPHTFGAGTKLEVKR | 6.59 nM | 0.000337 s⁻¹ | 51200 M⁻¹ s⁻¹ | – |
| Mutation 1-46 (antibody, V domains shown) VH: QVQLQQSGAELVRPGTSVKISCKASGYTFTEYWIGWVKQRPGHGLEWIGDMFPGDIYINYNEKFKGKATLTADTSSNTAYMQLSSLTSEDSAVYFCTNFITLGGIDYWGRGTSLTVSS VL: DVVMTQTPLTLSVTIGQPASISCKSSNSLLDSDGRTYLNWLLQRPGQSPKRLIYLVSKVDSGVPDRFTGSGSVTDFTLKISRVESEDLGVYYCWYGTHFPHTFGAGTKLEVKR | 8 nM | 0.000479 s⁻¹ | 59900 M⁻¹ s⁻¹ | – |
| Mutation 1-40 (antibody, V domains shown) VH: QVQLQQSGAELVRPGTSVKISCKASGYTFTDYWIGWVKQRPGHGLEWIGDMFPGDVYINYQEKFKGKATLTADTSSNTAYMQLSSLTSEDSAVYFCTNFITLGGIDYWGRGTSLTVSS VL: DVVMTQTPLTLSVTIGQPASISCKSSNSLLDSDGRTYLNWLLQRPGQSPKRLIYLVSKIDSGVPDRFTGSGSVTDFTLKISRVESEDLGVYYCWYGTHFPHTFGAGTKLEVKR | 4.05 nM | 0.000171 s⁻¹ | 42300 M⁻¹ s⁻¹ | – |
| WT 1-30 (antibody, V domains shown) VH: QVQLQQSGAELVRPGTSVKISCKASGYSFTEYWIGWVKQRPGHGLEWIGDMVPGDLYINYNEKFKGKATLTADTSSNTAYMQLSSLTSEDSAVYFCTNFLTVGGVDYWGRGTSLTVSS VL: DVVMTQTPLTLSVTIGQPASISCKSSNSLLESDGKTYLNWLLQRPGQSPKRLIYLVTKIDSGVPDRFTGSGSVTDFTLKISRVESEDLGVYYCWWGTHFAHTFGAGTKLEVKR | 20.4 nM | 0.000149 s⁻¹ | 7280 M⁻¹ s⁻¹ | – |
| Mutation 1-25 (antibody, V domains shown) VH: QVQLQQSGAELVRPGTSVKISCKASGYTFTEYWIGWVKQRPGHGLEWIGDMFPGDVYINYQEKFKGKATLTADTSSNTAYMQLSSLTSEDSAVYFCTNFLTLGGLDYWGRGTSLTVSS VL: DVVMTQTPLTLSVTIGQPASISCKSSNSLLDSDGRTYLNWLLQRPGQSPKRLIYLVSKIDSGVPDRFTGSGSVTDFTLKISRVESEDLGVYYCWYGTHFPHTFGAGTKLEVKR | 6.04 nM | 0.000273 s⁻¹ | 45100 M⁻¹ s⁻¹ | – |
| WT 1-7 (antibody, V domains shown) VH: QVQLQQSGAELVRPGTSVKISCKASGYSFTEYWIGWVKQRPGHGLEWIGDMVPGDLYINYQEKFKGKATLTADTSSNTAYMQLSSLTSEDSAVYFCTNFITVGGVDYWGRGTSLTVSS VL: DVVMTQTPLTLSVTIGQPASISCKSSQSLLESDGKTYLNWLLQRPGQSPKRLIYLVTKIDSGVPDRFTGSGSVTDFTLKISRVESEDLGVYYCWYGTHFAHTFGAGTKLEVKR | 65.5 nM | 0.000231 s⁻¹ | 3530 M⁻¹ s⁻¹ | – |
| Mutation 1-19 (antibody, V domains shown) VH: QVQLQQSGAELVRPGTSVKISCKASGYTFTEYWIGWVKQRPGHGLEWIGDMFPGDIYINYNEKFKGKATLTADTSSNTAYMQLSSLTSEDSAVYFCTNFITLGGIDYWGRGTSLTVSS VL: DVVMTQTPLTLSVTIGQPASISCKSSNSLLDSDGRTYLNWLLQRPGQSPKRLIYLVSKIDSGVPDRFTGSGSVTDFTLKISRVESEDLGVYYCWYGTHFPHTFGAGTKLEVKR | 4.72 nM | 0.000279 s⁻¹ | 59200 M⁻¹ s⁻¹ | – |
| recombinant anti-dengue virus NS1 11E2 antibody (WT) (antibody, mouse IgG2a, kappa, V domains shown) VH: QVQLQQSGAELVRPGTSVKISCKASGYSFTDYWIGWVKQRPGHGLEWIGDMVPGDLYINYQEKFKGKATLTADTSSNTAYMQLSSLTSEDSAVYFCTNFITVGGLDYWGRGTSLTVSS VL: DVVMTQTPLTLSVTIGQPASISCKSSNSLLDSDGKTYLNWLLQRPGQSPKRLIYLVTKIDSGVPDRFTGSGSVTDFTLKISRVESEDLGVYYCWWGTHFPHTFGAGTKLEVKR | 58.8 nM | 0.000398 s⁻¹ | 6770 M⁻¹ s⁻¹ | OD450 (ref 630) [5]: 0.448 OD; OD450 (ref 630) [6]: 0.838 OD; OD450 (ref 630) [1]: 2.32 OD; OD450 (ref 630) [2]: 2.38 OD; OD450 (ref 630) [7]: 0.163 OD; OD450 (ref 630) [8]: 1.66 OD; OD450 (ref 630) [9]: 0.297 OD; OD450 (ref 630) [3]: 2.2 OD |
